Test results: US20260146074A1 (CITY OF HOPE, published 2026)

Biological target: TAG72 on the surface of human tumor cells (LS174T, OVCAR3, OV90, OVCAR8-sTn, patient ascites OAS4 and OAS7) (human)
Assay: cell-based or functional assay

B1: TAG72-BBζ CAR (hTag72scFv-IgG4(HL-CH3)-CD4tm-41BB-Zeta), expressed on human T cells (other)
chain: QVQLVQSGAEVVKPGASVKISCKASGYTFTDHAIHWVKQNPGQRLEWIGYFSPGNDDFKYNERFKGKATLTADTSASTAYVELSSLRSEDTAVYFCTRSLNMAYWGQGTLVTVSSGSTSGGGSGGGSGGGGSSDIVMSQSPDSLAVSLGERVTLNCKSSQSLLYSGNQKNYLAWYQQKPGQSPKLLIYWASARESGVPDRFSGSGSGTDFTLTISSVQAEDVAVYYCQQYYSYPLTFGAGTKLELKESKYGPPCPPCPGGGSSGGGSGGQPREPQVYTLPPSQEEMTKNQVSLTCLVKGFYPSDIAVEWESNGQPENNYKTTPPVLDSDGSFFLYSRLTVDKSRWQEGNVFSCSVMHEALHNHYTQKSLSLSLGKMALIVLGGVAGLLLFIGLGIFFKRGRKKLLYIFKQPFMRPVQTTQEEDGCSCRFPEEEEGGCELGGGRVKFSRSADAPAYQQGQNQLYNELNLGRREEYDVLDKRRGRDPEMGGKPRRKNPQEGLYNELQKDKMAEAYSEIGMKGERRRGKGHDGLYQGLSTATKDTYDALHMQALPPR
tumor killing relative to Mock, LS174T cells, 24 hours: 59%
tumor killing relative to Mock, LS174T cells, 72 hours: 77%
tumor killing relative to Mock, OV90 cells, 24 hours: 67%
tumor killing relative to Mock, OV90 cells, 72 hours: 97%
tumor killing relative to Mock, OVCAR3 cells, 24 hours: 79%
tumor killing relative to Mock, OVCAR3 cells, 72 hours: 90%
